Seven molecules from patent US20070015260A1, “Synthesis of synthons for the manufacture of bioactive compounds” (DIVERSA CORPORATION, priority 2002, published 2007) can be followed below.

A short description of series [1]: DERA addition (aldol) assay. Conditions: spectrophotometric coupled-assay of substrate consumption and TLC of product formation. It counts as biochemical. The protocol: DERA enzyme activity was assayed in the aldol synthesis direction by determining the concentration of acetaldehyde remaining by a coupled endpoint assay with yeast alcohol dehydrogenase (YADH, EC 1.1.1.1). 200 mM acetaldehyde, which had been freshly distilled under anerobic conditions, 200 mM (±)-glyceraldehyde and 0.2 mg/mL DERA in 50 mM triethanolamine, pH 7.5 buffer which had been deoxygenated with N2, were incubated under an N2 atmosphere at 22° C. At various time points, 50 μL aliquots were withdrawn and quenched into 15 μL of 60% perchloric acid. After a 5 min incubation on ice, 890 μL 1 M triethanolamine, pH 7.5 buffer and 45 μL 4 N NaOH were added to neutralize the solution. 20 μL of this solution was then assayed for remaining acetaldehyde. The amount of acetaldehyde remaining was equated to moles NADH consumed, as determined in triethanolamine pH 7.5 buffer containing 0.3 mM NADH, 20 μL the above quenched reaction aliquot and 0.05 mg/mL YADH. DR product formation was also confirmed by silica gel TLC with ethylacetate running solvent and p-anisaldehyde developing stain. Rf: glyceraldehyde=0.04 (stains brown) Rf:2-deoxyribose=0.1 (stains blue).

Series [2] in a line: DERA cleavage (retroaldol) coupled assay, unnatural substrate DR. It counts as biochemical. Conditions: for ratio of specificity constants {kcat/KM (DR)}/{kcat/KM (DRP)}: DR compared to DRP, read; for activity / specificity with DR, in words: compared to WT; for Km / kcat: retro-aldol, pH 7.5, 25° C. As to the method: (§1) Enzyme activity was monitored by the standard coupled assay using α-Glycerophosphate Dehydrogenase (α-GPD, EC 1.1.18), and Triosephosphate Isomerase (TPI, EC 5.3.1.1). Enzyme activity was assayed in the retro-aldol, decomposition direction with 0.01-4 mM D-2-deoxyribose-5-phosphate (DRP) or 5 to 200 mM D-2-deoxyribose in 50 mM triethanolamine hydrochloride pH 7.5 buffer using a GPD/TPI (1.6 U/mL Sigma G-1881) coupled enzyme system at 25° C. in the presence of 0.3 mM NADH by observing the rate of decrease of NADH concentration as monitored at 340 nm, ε=6220 M^−cm^−1.

Series [3] can be described thus: DERA cleavage (retroaldol) coupled assay, natural substrate DRP. It is filed as biochemical. Conditions: for Km / kcat: retro-aldol, pH 7.5, 25° C.; for activity / kcat/KM with the natural substrate DRP, in words: compared to WT. The protocol: as §1
Series [4] in a line: Sequential asymmetric aldol reaction with azidoaldehyde acceptor. It is filed as biochemical. Conditions: 3-azidopropinaldehyde acceptor, two molecules of acetaldehyde as donor.
Series [5] deals with E. coli SELECT (Δace, adhC, DE3) cells. The series is described as follows: In vivo selection: growth of E. coli SELECT with supplementation substrates. It is filed as cell-based. Conditions: for toxicity of supplementation substrate to SELECT cells: together with sodium acetate. The source says:
SELECT was transformed with the DERA expressing plasmid, pET30a WT DERA, and growth conditions were then optimized for the expression of soluble active DERA enzyme. Selection conditions were further optimized using DERA's natural substrate DRP as a supplementation substrate and FIG. 6 illustrates that viable selection conditions are achieved. In the absence of 2-carbon supplementation, neither SELECT cells transformed with a plasmid which expresses WT DERA nor those transformed with a nonexpressing plasmid (−) grow. By contrast, both grow in the presence of sodium acetate supplementation. […] Proof of principle for this selection system arises from the fact that only E. coli SELECT cells transformed with plasmid that expresses WT DERA grow when DRP is used as the supplementation substrate. Furthermore, that the endogenous genomic E. coli DERA is not expressed at a sufficiently high level to affect the use of DRP as a 2-carbon source by virtue of its metabolism to acetaldehyde and D-glyceraldehyde-3-phosphate was established. […] A novel activity-based selection system is thus established and can be used to select for a DERA variant which can catalyze the retro-aldol reaction of DR and other nonphosphorylated substrates. Work is in progress to identify novel DERA variants for this purpose.
Plasmids were transformed into electrocompetent SELECT cells and subjected to 1 h outgrowth at 37° C. in 1 mL SOC medium supplemented with 0.1% sodium acetate. The cells were then collected by centrifugation at 4° C., 3000 rpm for 10 min. The supernatant was discarded and the pellet gently resuspended M9 0.2% glucose. This was repeated twice. The cells were then diluted to OD600=0.001 in M9 0.2% glucose, 0.01 mM IPTG, 10 μg/mL kanamycin. The appropriation supplementation substrate (sodium acetate, D-2-deoxyribose-phosphate or D-2-deoxyribose) was then added at 0.1% w/w concentration. After an appropriate selection time at 37° C., typically 24-72 h, the cells were harvested by centrifugation and their amplified plasmids isolated.

A short description of series [6]: DERA catalysis with 2-methyl-3-hydroxypropinaldehyde as acceptor. It counts as biochemical. Conditions: L-2-methyl derivative as substrate.

Residue numbers refer to the chain shown, from its start. Names and notes keep the numbering of the source. “Also recorded” adds a separate entry of the source.

With “WT: wild-type E. coli 2-deoxyribose-5-phosphate aldolase (DERA, EC 4.1.2.4)”, in series [1], the “relative activity of the DERA variants in the aldol direction” value (shortened to “relative activity of the DERA variants”) is “S238˜DS239W>WT>R207E>K172E>G205E”. Also, in series [2], the “ratio of specificity constants {kcat/KM (DR)}/{kcat/KM (DRP)}” value (from here on “ratio of specificity constants {kcat/KM”) was 1.9 × 10^−5. Moreover, in series [2] (substrate DR), the “activity / specificity with DR, in words” value is “cannot accept the unnatural substrate DR efficiently”; the Km was 57 ± 7 mM; the turnover number (kcat) stood at 0.107 ± 0.005 s⁻¹. Moreover, in series [3], the Michaelis constant (Km) turned out to be 0.64 ± 0.01 mM and the catalytic constant (kcat) stood at 68 ± 1 s⁻¹. Further, the “acceptance of the azidoaldehyde as substrate” value in series [4] is “not a substrate; also recorded: inactive”. Also, the “growth of SELECT cells transformed with expressing plasmid” value in series [5] (DRP as the supplementation substrate) is “grow”.
Turning to `O=CC[C@@H](O)[C@H](O)COP(=O)(O)O` [DRP, D-2-deoxyribose-5-phosphate], the “toxicity of supplementation substrate to SELECT cells” value in series [5] is recorded as “neither of these supplementation substrates nor their metabolic products are toxic to the cells”.
Same read-out and setting: as for `O=CC[C@@H](O)[C@H](O)CO` [DR, D-2-deoxyribose], the entry is “neither of these supplementation substrates nor their metabolic products are toxic to the cells”.

B1: S238D: DERA variant, phosphate binding pocket residue Ser238 replaced with Asp (protein, UniProt P0A6L0 1-259, looked up, variant S238D)
Deoxyribose-phosphate aldolase: MTDLKASSLRALKLMDLTTLNDDDTDEKVIALCHQAKTPVGNTAAICIYPRFIPIARKTLKEQGTPEIRIATVTNFPHGNDDIDIALAETRAAIAYGADEVDVVFPYRALMAGNEQVGFDLVKACKEACAAANVLLKVIIETGELKDEALIRKASEISIKAGADFIKTSTGKVAVNATPESARIMMEVIRDMGVEKTVGFKPAGGVRTAEDAQKYLAIADELFGADWADARHYRFGADSLLASLLKALGHGDGKSASSY
Turning to B1, the “improvement in kcat/KM compared to that of the wild type” value in series [6] turned out to be 5 fold. Moreover, the “relative activity of the DERA variants” value in series [1] is listed as “S238˜DS239W>WT>R207E>K172E>G205E”. Further, the “ratio of specificity constants {kcat/KM” value in series [2] amounted to 0.13. In series [2] (substrate DR), the “improvement in kcat/KM compared to WT-DERA” value turned out to be 2.5 fold, the Michaelis constant (Km) stood at 39 ± 6 mM and the kcat was 0.21 ± 0.01 s⁻¹. Besides, in series [3], the “activity / kcat/KM with the natural substrate DRP, in words” value is on record as “substantially decreased”; the Michaelis constant (Km) amounted to 61 ± 11 mM; the kcat was determined as 0.58 ± 0.05 s⁻¹. Further, the “acceptance of the azidoaldehyde as substrate” value in series [4] was “catalyzes a novel sequential aldol reaction; also recorded: accepts 3-azidopropionaldehyde as a new substrate”.

B2: K172E: DERA variant, basic phosphate binding pocket residue Lys172 mutated to Glu (protein, UniProt P0A6L0 1-259, looked up, variant K172E)
Deoxyribose-phosphate aldolase: B1 Deoxyribose-phosphate aldolase with K172E, D238S
Turning to B2, in series [1], the “relative activity of the DERA variants” value is “S238˜DS239W>WT>R207E>K172E>G205E”. Also, the “ratio of specificity constants {kcat/KM” value in series [2] came out at 0.27. For the same molecule, in series [2] (substrate DR), the “decrease in kcat/KM” value amounted to 5 fold, the Km came to 63 ± 22 mM and the turnover number (kcat) amounted to 0.022 ± 0.02 s⁻¹.

B3: R207E: DERA variant, basic phosphate binding pocket residue Arg207 mutated to Glu (protein, UniProt P0A6L0 1-259, looked up, variant R207E)
Deoxyribose-phosphate aldolase: B1 Deoxyribose-phosphate aldolase with R207E, D238S
Take B3: in series [1], the “relative activity of the DERA variants” value is listed as “S238˜DS239W>WT>R207E>K172E>G205E”. Besides, in series [2], the “ratio of specificity constants {kcat/KM” value came out at 2.2. In addition, in series [2] (substrate DR), the “activity / specificity with DR, in words” value is listed as “virtually unchanged”; the Km was found to be 33 ± 3 mM; the kcat is 0.064 ± 0.001 s⁻¹.

B4: G205E: DERA variant, neutral phosphate binding pocket residue Gly205 replaced with Glu (protein, UniProt P0A6L0 1-259, looked up, variant G205E)
Deoxyribose-phosphate aldolase: B1 Deoxyribose-phosphate aldolase with G205E, D238S
Consider B4, for which the “relative activity of the DERA variants” value in series [1] is “S238˜DS239W>WT>R207E>K172E>G205E”. In addition, the “ratio of specificity constants {kcat/KM” value in series [2] is reported as 3.1 × 10^−3. In series [2] (substrate DR), the “activity / specificity with DR, in words” value is “virtually inactive”. Moreover, the “activity / kcat/KM with the natural substrate DRP, in words” value in series [3] was “virtually inactive”.

By Km is commonly meant the concentration of substrate that gives half-maximal velocity. For orientation: kcat means the number of substrate molecules converted per active site and unit of time at saturation.
